This assay addresses LGR4 co-expressed with ZNRF3ΔRING on HEK293T cells (LGR4-E3 ligase complex), Q9BXB1.

B1: RSPO2 furin domain with a C-terminal His tag (R2Fu-His), Q6UXX9 37-143 (domain or fragment)
chain: NPICKGCLSCSKDNGCSRCQQKLFFFLRREGMRQYGECLHSCPSGYYGHRAPDMNRCARCRIENCDSCFSKDFCTKCKVGFYLHRGRCFDECPDGFAPLEETMECVE
Consider B1, for which the EC50 of TOPFlash (Wnt/β-catenin reporter) activity in STF cells, which endogenously express LGR4, RNF43 and ZNRF3 turned out to be 0.79 nM.

The record behind these values is article PMC10319729.
